The record followed here is the domain aggregation screens of Martell et al. (2025).

The data set can be described thus: soluble fraction after stress (log2 fold change); higher = more stays soluble; pooled small domains, quantitative proteomics. The settings on record: stress: 50 degC. In a few lines: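 Each library was heated to 50°C as a stress step. The libraries, made up of small protein domains, were pooled and analysed at high throughput by quantitative proteomics. The reported value is the base-two logarithm of the fold change in each protein's soluble amount after stress, taken as a measure of aggregation propensity. The higher the value, the more protein stays in solution.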
Turning to “HMAENTIPSVIGKTLSDATFLLESYGYERGGVSEEYSEMPKGVVIRQSPQAGSSADPGTKVNLVVSLGEEI”, the “soluble fraction (log2)” value stood at 0.174.

Turning to “HMSQYVPDPVLNAALVGYLDFRKQAGKPMTDYSIRLLLVDLAKLSGNPQEQAAILDQSTKNNWIGVYALG”, the “soluble fraction (log2)” value is -2.87. The result for “HMYKTKVDIAYDMLMERITEGVYKPGEKLVITHISKELGISDIPVREAIRRLESEGYVKILPNQGAIVYD” reads -0.395; that for “HMQVITEPFQEKYREFINMSTVTQRLEERETLSFTAQTVEGRWLTIIIVPQGYDKTGKLSTVLVANR”, 0.179; that for “HMQSKDDLLDTFRVVKGNAALLNDQNKKLIRSLKVSSFGFTGITDQAAEVKKEMPDVLLEKASIEDILF”, -0.12.

Consider “HMSENMSQDLAQWYRLQQALHPNLDAPELWATDLTSQQRTVRDQLIQQWAQEKRDSLWSEISGD”, for which the “soluble fraction (log2)” value was 0.0433. The result for “HMATLAVPNLMRLSQGEAMALIRLSGLSIGNVSIDSSMGSPRVIRQEPQASGGMLVLTQGDQVHLWLEGP” reads -3.2; that for “HMAALTADEAKQIALKHAGVAESDVQRLKVEQDRDDGRLLYEVEWDVGRTEYSYEIDANTGDILNYEKDV”, 0.254. For “HMDVQEILGALSPDEKAAIGQLTSGEKHIDQIIAATRLPAARITSALTLLQIKGYVRALPGKRFSLTEKQ”, the “soluble fraction (log2)” value was -0.0961. The result for “HMAPRQDIAYYTVKPGDTVLAIAEKFGLQPETLMWSNSIIEQNPDRLSIGDELRILPVDGVLHVVK” reads 0.0612.

“HMLVSPLDEIPGIGRNRKKTLLNHFGSAKTIEGASLEDLKKVDGISELIAKKIYNYFHLNKNF”: the “soluble fraction (log2)” value was -0.411. As for “HMTSNSLNLKDEISAFLTKNAGISYSAERIAHALNMDNADQFTPIIQTLAQLEREKKVRVTDKGEFEAVIK”, the “soluble fraction (log2)” value is 0.0897.

As for “HMQDEAQLSMSNKYIFEGNSIVKDNFIEAEKKYRLGVSAKPNNAVGSYNLANAYYNSKLYDEAMLRLL”, the “soluble fraction (log2)” value turned out to be 0.272. On to “HMIFTPNGDRVNDVFEIEMGVKLEFQIIILNQQNQTVFKSADPDFKWDGTMLNGEPAPSGTYLYYFSAKD”, for which the “soluble fraction (log2)” value came to 0.0847. On to “HMIAVSQEQIKQIIVDDPSFHDANGKFSQALLTQYLNQRRMSEDQFVEEIRDQFLFQNLQNLVQNG”, for which the “soluble fraction (log2)” value turned out to be 0.0233. As to “HMRQSDIAAAFRESILRSSKGFQYLHTRDFVTALRRRGIHLSEVEANSWIAREKTYFVDSALDHSENRLWI”, the “soluble fraction (log2)” value was -1.6. The result for “HMKDLSMPDVMGSSLNDAKKALTELGIMDITVRYVESGSSEGSIVGMEPPAGSKFAADGKVVLQVSSGS” reads 0.351; that for “HMGALSLDMLFDRFDALQEQSMGDKTEGGQELRGMIRTFIEQEKLDIRVTRTTTNAALLEMIEKEMQG”, -0.451. The result for “HMTEFFNMQDMFYFKLTGDVTSKERRQSLGKILGIGYGNAAQMVSRLNNYGITKEEFTNAINEIEKQMEAG” reads -0.775. The result for “HMADLVYLRKRLQDAIAQLPEDMRTAYTLFQIARRSIREIAELTGASESLVKVRIHRAKGKLQELLEDLR” reads -1.87; that for “HMKRFSPPSIEEVDSYIREKGYTVDAERFVNFYESKGWYVGKNKMKNWRAAVATWQKEDNKRN”, 0.199. For the sequence “HMDSQSVFADLVKSLSQKIASIPVWFEYTKNEQYDLISSYVSAKLKDLGVEFSQEEKEKFITMFMNS”, the “soluble fraction (log2)” value is -0.267. The result for “HMTPDVAEFRERLRQILPGEQIEVRTANDGIVLSGTVSSIARLDAALQLAERYAPSRVSNLMSVG” reads 0.19.

As for “HMTPSTVQVHVAGAVKNPGVYVLLENARNIDAITAAGGATSEADLERINLSEFIRDGQRVYVPYKGDPI”, the “soluble fraction (log2)” value was found to be 0.269. As to “HMKTVPNVEGEKDGTAQSAIESAGLKVGKVTYQYDDNTSKGLVISQSVKGGEKVKPNTAIDLVVSNGPK”, the “soluble fraction (log2)” value came to 0.0173. The result for “HMSTILERLIMLQEQSGMNQKQLQKELGLSNSAFSDWKKGKGRPSVEALVRFSEFFGVSMDWLAFG” reads -2.09. The result for “HMADEIMYPVQVNGKVRAEIFVAADQSKNKELVLEMAKSEERVQKYLEEGNLIKEIFVPGRIVNLVI” reads 0.0273; that for “HMSSNLSLHKEGNKIVILGLEGKSVIEVYDLMGRLLSSQTNYNPKQEITLLQPVIIRVTDTQQTKSFKV”, -0.83; that for “HMENWMPNLVNQDKRLAINTLRELGFTEEAGNLVIREETSEDVTKDYVISTDPVAETDLADVEKVTLVVSS”, 0.0767. The result for “HMIIENIVVEIKGEVYNPGLYILEQGSRINDLIELSGGFTKDANGTDLNLAKVLSDGEVIIVSKKG” reads -0.2; that for “HMNATLEQLTQREREIAVLMAEGLTNAQIGSRLNVSMASVKAHLSHIFTKLGVDNRVSAAMMVL”, -0.654. In the case of “HMDRNEFVSTLRAALTGAVSPAIVEDNVRYYQNYISQEIASGKSEKEVLDGLGDPRLIARTIIDT”, the “soluble fraction (log2)” value was 0.0674.

Take “HMFDFNNLSSLSDVELSVYRFVVNNPEKVAYMRVRDIAQKTHVANSSVMRFVHKIGFASFPEFKAYLKNIN”: the “soluble fraction (log2)” value is -1.03. The result for “HMQPPKIISTVEPYREVVREYLKQGVEMTAIWQRLRENYQYTGSYSSVRRFVAQLEPRQPEA” reads -1.01; that for “HMGTRIQAVMEDIQSRIAARTYLPGTRLPSVRAQAQAMQVSVSTVVEAYERLAAEGVIASRPGSGFYVAGP”, -1.44; that for “HMPFESEMKHWIHLFAHELNLKVSDKYTQKIIEIFGNNFSEIFNEMSKSSLVSSNEKDLLNALEKSGNIH”, -0.678. “HMQGISGIERSLLDALAFEPAGLDALQARTGLDTPTLQALLMGLELQGHVARLPGSLFQRLVR”: the “soluble fraction (log2)” value is -0.523. The result for “HMGSGVNVTVNGKRMNLPLKDDHIIFVDIFNYIDFDLSKPKGSIVLKLNGRDAGYTDPIKDGDVIDIYWQ” reads 0.33. The result for “HMDPPYKDKNLHELLLKINNLNILKKDSVIILHRHKKQKEIFPSNFKIIEQKQYGISKIIFLTVL” reads 0.00254. In the case of “HMNNIIEQIKADIKKLEEKLDKSSENALNKLEKDYSSLSTESKKKLDDAGYGARIKALRVKFAALSTQ”, the “soluble fraction (log2)” value was 0.0666. Consider “HMQAVDPLELRAGDFVVHEQHGIGRYVEMVQRTIGGITREYLVIEYAPAKRGQPNDRVFVPTDTLEQVS”, for which the “soluble fraction (log2)” value was -0.514.

On to “HMLMDVRVPDIIGVEINQAKEILTASSLLIGKITYVSLPEIEKDLVIETSVLAGRRVSAGTVIDITVNKE”, for which the “soluble fraction (log2)” value is -0.76. Regarding “HMVGLKWYDTGNKKPPIGTEYKNTELSEALKGHDRKEFTWKELDVLGVNITDKEQYIVVGENYYTQV”, the “soluble fraction (log2)” value is -0.197.
